Values of other authors in patent US12246031B2, “Compositions and methods for tumor immunotherapy” (CHECKMATE PHARMACEUTICALS, INC., priority 2018, dated 2025).
pKd: −log10 of the molar value.

Target: PD-L1 (Homo sapiens, UniProt Q9NZQ7)
Conditions: anti-PD-L1 antibody in clinical development

Sequence of PD-L1 (Q9NZQ7 19-290): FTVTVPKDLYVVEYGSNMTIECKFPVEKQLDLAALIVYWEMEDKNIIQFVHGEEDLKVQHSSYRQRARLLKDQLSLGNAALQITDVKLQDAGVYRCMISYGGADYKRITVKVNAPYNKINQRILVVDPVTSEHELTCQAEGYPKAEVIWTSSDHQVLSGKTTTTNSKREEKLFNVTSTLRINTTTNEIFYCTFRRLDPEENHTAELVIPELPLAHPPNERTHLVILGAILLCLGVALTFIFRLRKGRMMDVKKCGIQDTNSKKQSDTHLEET

pKd: 9.40
Substance: MPDL3280A: anti-PD-L1 antibody under development in human clinical trials (Genetech/Roche)
